Laboratory results taken from patent publication US20240116985A1 (published 2024).
Starred links: 1 amine or outer side, 2 acyl side, 3 side chain; linkers in the order of their positions; H or OH if unused. Positions of bridges follow the written chain, without caps; N, C: chain ends. Non-standard residues stand in square brackets, D forms with d. Primed or numbered codes have the meaning given here. PyrS2(3) = (S)-3-amino-1-((pent-4-en-1-yloxy)carbonyl)pyrrolidine-3-carboxylic acid, stapling residue, C=CCCCOC(=O)N1CC[C@@](N[*:1])(C(=O)[*:2])C1; PyrS2″ = (S)-3-amino-1-((pent-4-en-1-yloxy)carbonyl)pyrrolidine-3-carboxylic acid (stapling residue), C=CCCCOC(=O)N1CC[C@@](N[*:1])(C(=O)[*:2])C1; TfeGA = (S)-2-amino-3-((carboxymethyl)(2,2,2-trifluoroethyl)amino)propanoic acid, O=C([C@H](CN(CC(=O)[*:3])CC(F)(F)F)N[*:1])[*:2]; B5(3) = 2,2-bis(4-pentenyl)glycine (stitching residue), C=CCCCC(CCCC=C)(N[*:1])C(=O)[*:2]; B5″ = 2,2-bis(4-pentenyl)glycine, stitching residue, C=CCCCC(CCCC=C)(N[*:1])C(=O)[*:2]; Asp(OEt)″ = aspartic acid side-chain ethyl ester, CCOC(=O)C[C@H](N[*:1])C(=O)[*:2]; Asp(OMe) = [Me]AspE, Asp side-chain methyl ester, COC(=O)C[C@H](N[*:1])C(=O)[*:2]; Phe(F5) = N[C@@H](Cc1c(F)c(F)c(F)c(F)c1F)C(=O)O; Phe(3-COOH) = N[C@@H](Cc1cccc(C(=O)O)c1)C(=O)O; Bta = N[C@@H](Cc1csc2ccccc12)C(=O)O; Lys(iPr) = CC(C)NCCCC[C@H](N)C(=O)O; αAllylPro = C=CC[C@@]1(C(=O)O)CCCN1; tBuAla = CC(C)(C)C[C@H](N)C(=O)O; 3Thi = N[C@@H](Cc1ccsc1)C(=O)O; Cha = N[C@@H](CC1CCCCC1)C(=O)O; S8 = C=CCCCCCC[C@](C)(N)C(=O)O; R5 = C=CCCC[C@@](C)(N)C(=O)O; hSer = N[C@@H](CCO)C(=O)O; Aib = CC(C)(N)C(=O)O

T1: B-cat-Halo (beta-catenin HaloTag fusion expressed in HEK293 cells) (UniProt P35222 1-781, HaloTag NanoBRET 618 Ligand bound to the HaloTag)
T1 sequence (looked up): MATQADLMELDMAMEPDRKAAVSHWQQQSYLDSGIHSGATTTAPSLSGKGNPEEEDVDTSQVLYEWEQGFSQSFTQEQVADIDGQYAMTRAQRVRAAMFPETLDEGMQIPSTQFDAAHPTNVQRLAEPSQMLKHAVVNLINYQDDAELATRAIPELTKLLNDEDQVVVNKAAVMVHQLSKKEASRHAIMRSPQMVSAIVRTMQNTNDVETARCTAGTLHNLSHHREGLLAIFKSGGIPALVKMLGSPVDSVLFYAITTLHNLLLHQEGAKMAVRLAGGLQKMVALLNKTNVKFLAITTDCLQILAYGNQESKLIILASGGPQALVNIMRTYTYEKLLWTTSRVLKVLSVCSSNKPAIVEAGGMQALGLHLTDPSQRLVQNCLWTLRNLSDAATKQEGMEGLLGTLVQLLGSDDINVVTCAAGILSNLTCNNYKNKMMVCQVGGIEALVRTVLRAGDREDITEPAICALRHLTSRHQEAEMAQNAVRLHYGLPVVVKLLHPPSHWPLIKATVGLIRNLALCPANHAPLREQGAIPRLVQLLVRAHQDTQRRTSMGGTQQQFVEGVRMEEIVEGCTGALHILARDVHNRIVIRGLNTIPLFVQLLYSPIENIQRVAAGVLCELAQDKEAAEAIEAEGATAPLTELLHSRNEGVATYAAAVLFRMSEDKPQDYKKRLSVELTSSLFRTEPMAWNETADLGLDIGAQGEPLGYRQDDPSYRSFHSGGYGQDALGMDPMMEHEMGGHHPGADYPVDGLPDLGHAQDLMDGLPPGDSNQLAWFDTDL

T2: B-cat-Halo (beta-catenin HaloTag construct expressed in HEK293 cells) (UniProt P35222 1-781)
T2 sequence (looked up): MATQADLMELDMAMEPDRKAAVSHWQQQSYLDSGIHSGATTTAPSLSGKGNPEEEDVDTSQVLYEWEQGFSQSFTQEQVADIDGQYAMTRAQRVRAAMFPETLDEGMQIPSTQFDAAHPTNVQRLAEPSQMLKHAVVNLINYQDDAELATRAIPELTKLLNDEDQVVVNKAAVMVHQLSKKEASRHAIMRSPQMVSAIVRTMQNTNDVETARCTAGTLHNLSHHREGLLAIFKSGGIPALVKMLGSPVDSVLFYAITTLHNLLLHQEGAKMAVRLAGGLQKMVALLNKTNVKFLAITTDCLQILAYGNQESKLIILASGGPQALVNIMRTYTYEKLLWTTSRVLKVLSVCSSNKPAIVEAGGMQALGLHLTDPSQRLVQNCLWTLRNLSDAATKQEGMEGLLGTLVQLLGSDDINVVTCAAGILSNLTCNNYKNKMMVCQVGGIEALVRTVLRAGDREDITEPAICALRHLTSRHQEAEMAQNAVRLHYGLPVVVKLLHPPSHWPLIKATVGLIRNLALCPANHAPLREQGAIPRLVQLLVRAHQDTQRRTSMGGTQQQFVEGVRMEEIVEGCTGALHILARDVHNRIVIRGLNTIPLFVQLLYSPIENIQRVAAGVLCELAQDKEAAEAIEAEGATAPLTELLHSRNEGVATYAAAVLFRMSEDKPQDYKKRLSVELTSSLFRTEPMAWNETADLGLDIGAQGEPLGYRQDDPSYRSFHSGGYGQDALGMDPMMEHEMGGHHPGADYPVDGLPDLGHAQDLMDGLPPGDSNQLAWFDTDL

B1: I-2350 (peptide)
peptide: Ac-[αAllylPro]N[Cha][B5(3)]DQ[Lys(iPr)]AFL[PyrS2″]F[Bta]K-NH2
modifications: staple 1-4, 4-11
B2: I-2359 (peptide)
peptide: Ac-[αAllylPro][Asp(OMe)][tBuAla][B5(3)]DDAAFL[PyrS2″][3Thi][Bta]Q-NH2
modifications: staple 1-4, 4-11
B3: I-2340 (peptide)
peptide: Ac-[αAllylPro]N[Cha][B5(3)]D[Phe(3-COOH)][Lys(iPr)]AFL[PyrS2″]F[Bta]Q-NH2
modifications: staple 1-4, 4-11
B4: I-2338 (peptide)
peptide: Ac-[αAllylPro]D[tBuAla][B5(3)]NT[Aib]AFN[PyrS2″][3Thi][Bta]Q-NH2
modifications: staple 1-4, 4-11
B5: I-2341 (peptide)
peptide: Ac-[αAllylPro]N[Cha][B5(3)]D[TfeGA][Lys(iPr)]AFL[PyrS2″]F[Bta]Q-NH2
modifications: staple 1-4, 4-11
B6: I-2354 (peptide)
peptide: Ac-[αAllylPro]N[Cha][B5(3)]DQ[hSer]AFL[PyrS2″]F[Bta]Q-NH2
modifications: staple 1-4, 4-11; also: earlier eluting isomer, configuration not given here
B7: I-2357 (peptide)
peptide: Ac-[αAllylPro]D[tBuAla][B5(3)][Asp(OEt)″]DAAFL[PyrS2″][3Thi][Bta]Q-NH2
modifications: staple 1-4, 4-11
B8: I-2336 (peptide)
peptide: Ac-[αAllylPro]D[tBuAla][B5(3)]N[Phe(3-COOH)]AAFT[PyrS2″][3Thi][Bta]Q-NH2
modifications: staple 1-4, 4-11
B9: I-2358 (peptide)
peptide: Ac-[αAllylPro]D[tBuAla][B5(3)]D[Asp(OEt)″]AAFL[PyrS2″][3Thi][Bta]Q-NH2
modifications: staple 1-4, 4-11
B10: I-1185 (peptide)
peptide: Ac-[αAllylPro]D[tBuAla][B5″]DDAAFL[PyrS2(3)][Phe(F5)][Bta]Q-NH2
modifications: staple 1-4, 4-11
B11: I-1195 (peptide)
peptide: Ac-[αAllylPro]D[tBuAla][B5″]DDAAFL[S8][3Thi][Bta]H-NH2
modifications: staple 1-4, 4-11
B12: I-1181 (peptide)
peptide: Ac-PD[tBuAla][R5]DDAAFL[PyrS2(3)][3Thi][Bta]Q-NH2
modifications: staple 4-11
B13: I-1188 (peptide)
peptide: Ac-[αAllylPro]D[tBuAla][B5″]DDAAFL[S8][3Thi][Bta]Q-NH2
modifications: staple 1-4, 4-11
B14: I-1186 (peptide)
peptide: Ac-[αAllylPro]D[tBuAla][B5″]DDAAFN[PyrS2(3)][Phe(F5)][Bta]Q-NH2
modifications: staple 1-4, 4-11
B15: I-1187 (peptide)
peptide: Ac-[αAllylPro]D[Cha][B5″]DDAAFT[PyrS2(3)][Phe(F5)][Bta]S-NH2
modifications: staple 1-4, 4-11

These binders were tested against T1, B-cat-Halo (beta-catenin HaloTag fusion …) (assay: cell-based or functional assay).
With B1 the “NanoBRET Abs IC50” value was over 20 µM.
With B2 the “NanoBRET Abs IC50” value was over 20 µM.
B3 was tested, and the “NanoBRET Abs IC50” value was over 20 µM.
B4 was tested, and the “NanoBRET Abs IC50” value was over 20 µM.
With B5 the “NanoBRET Abs IC50” value was over 20 µM.
For B6, the “NanoBRET Abs IC50” value was over 20 µM.
With B7 the “NanoBRET Abs IC50” value was over 20 µM.
In the case of B8, the “NanoBRET Abs IC50” value is reported as 14.4 µM.
For B9, the “NanoBRET Abs IC50” value was 52.2 µM.

These binders were tested against T2, B-cat-Halo (beta-catenin HaloTag …) (assay: cell-based or functional assay).
In the case of B10, the “NanoBRET Abs IC50” value is reported as 26.9 µM.
With B11 the “NanoBRET Abs IC50” value was 16.2 µM.
For B12, the “NanoBRET Abs IC50” value was over 20 µM.
B13 was tested, and the “NanoBRET Abs IC50” value was 7.2 µM.
With B14 the “NanoBRET Abs IC50” value was 23.6 µM.
B15 was tested, and the “NanoBRET Abs IC50” value was 28.6 µM.
